This passage reports self-cleavage results from the RNAGym collection of RNA variant scans (doi:10.1093/nar/gkz1192).

B1: CPEB3 Ribozyme (parent)
chain: UAACAGGGGGCCACAGCAGAAGCGUUCACGUCGCAGCCCCUGUCAGAUUCUGGUGAAUCUGCGAAUUCUGCUGUAUAUCUC

Variants of B1 are the subject of the data set. In words: self-cleavage, relative activity (ratio to wild type); higher = more cleavage; in vitro, sequencing. An outline of the steps:
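After error-prone PCR and barcoding, CPEB3 ribozyme mutant libraries were transcribed with T7 RNA polymerase at 37°C for 5 hours, then given 15 min with DNase I before an EDTA stop, and they cleaved during both steps. Reverse transcription with template switching preceded Illumina sequencing. Relative activity divides a variant's cleaved/total read fraction by the unmutated ribozyme's. At least 5 reads were required per variant, and three batches were averaged.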
On to UAACAGGGGGCCACAGCAGAAGCGUUCACGUCGAAGCCCCUGUCAGAUUCUGGUGAAUCUGCGAAUUCUCCUGUAUAUCUC [C34A G70C], for which the self-cleavage is 0.17.
In the case of UAACAGGGGGCCACAGCAGAAGCGUUCACGUCGAAGCCCCUGUCAGAUUCUGGUGAAUCUGCGAGUUCUGCUGUAUAUCUC [C34A A65G], the self-cleavage was found to be 0.26.
The value for UAACAGGGGGCCACAGCAGAAGCGUUCACGUCGGAGCCCCUGUAAGAUUCUGGUGAAUCUGCGAAUUCUGCUGUAUAUCUC [C34G C44A] was 0.1; that for UAACAGGGGGCCACAGCAGAAGCGUUCACGUCGAAGCCCCUGUCAGAUUCUGGUGAAUCUGCGAAUUCUGCUGUAUAUCGC [C34A U80G] was 0.33; that for UAACAGGGGGCCACAGCAGAAGCGUUCACGUCGAAGCCCCUGUCAGAUUCUGGUGAAUCUGCGAAUUCUGCUGUAUAUCCC [C34A U80C] was 0.34.
Then UAACAGGGGGCCACAGCAGAAGCGUUCACGUCGAAGCCCCGGUCAGAUUCUGGUGAAUCUGCGAAUUCUGCUGUAUAUCUC [C34A U41G], with 0.39; and UAACAGGGGGCCACAGCAGAAGCGUUCACGUCGGAGCCCCUGUCAGAUUCUGGUGAAUCUGCGAAUUCUGCUGUAUCUCUC [C34G A77C], with 0.08; and UAACAGGGGGCCACAGCAGAAGCGUUCACGUCGGAGCCCCUGUCAGAUUCUGGUGAAUCUGGGAAUUCUGCUGUAUAUCUC [C34G C62G], with 0.04.
Then UAACAGGGGGCCACAGCAGAAGCGUUCACGUCGAAGCCCCUGUCAGACUCUGGUGAAUCUGCGAAUUCUGCUGUAUAUCUC [C34A U48C], with 0.13; and UAACAGGGGGCCACAGCAGAAGCGUUCACGUCGGGGCCCCUGUCAGAUUCUGGUGAAUCUGCGAAUUCUGCUGUAUAUCUC [C34G A35G], with 0.86.
Take UAACAGGGGGCCACAGCAGAAGCGUUCACGUCGGAGCCCCUGUCAGAUUCUGGUGGAUCUGCGAAUUCUGCUGUAUAUCUC [C34G A56G]: the self-cleavage stood at 0.18.
The value for UAACAGGGGGCCACAGCAGAAGCGUUCACGUCGGAGCCCCUGUCAGAUUCUGGUGAAUCUGCGAAUUCUGCUGUGUAUCUC [C34G A75G] was 0.15.
Then UAACAGGGGGCCACAGCAGAAGCGUUCACGUCGAAGCCCCUGUCAGAUUCUGGUGAAUCUGCGAAUUCCGCUGUAUAUCUC [C34A U69C], with 0.07; and UAACAGGGGGCCACAGCAGAAGCGUUCACGUCGAAGCCCCUGUCAGAUUCUGGUGAAUCUGCGAAUUCAGCUGUAUAUCUC [C34A U69A], with 0.07; and UAACAGGGGGCCACAGCAGAAGCGUUCACGUCGAAGCCCCUGUUAGAUUCUGGUGAAUCUGCGAAUUCUGCUGUAUAUCUC [C34A C44U], with 0.08.
The value for UAACAGGGGGCCACAGCAGAAGCGUUCACGUCGAAGCCCCUGUCAGAUUCUGGUGAAUCUGCGGAUUCUGCUGUAUAUCUC [C34A A64G] was 0.14; that for UAACAGGGGGCCACAGCAGAAGCGUUCACGUCGAAGCCCCUGUCAGAUUCUGGUGAGUCUGCGAAUUCUGCUGUAUAUCUC [C34A A57G] was 0.35; that for UAACAGGGGGCCACAGCAGAAGCGUUCACGUCGAAGCCCCUGUCAGAUUCUGGUGAAUCUGCGAAUACUGCUGUAUAUCUC [C34A U67A] was 0.33.
UAACAGGGGGCCACAGCAGAAGCGUUCACGUCGAAGCCCCUGUCAGAUUCUGGUGAAUCUGCGAAUCCUGCUGUAUAUCUC [C34A U67C]: the self-cleavage came out at 0.29.
Then UAACAGGGGGCCACAGCAGAAGCGUUCACGUCGAAGCCCCUGUCAGAUUCUGGUGAAUCUGCGAAUUCUGCUGUAUACCUC [C34A U78C], with 0.32.
Then UAACAGGGGGCCACAGCAGAAGCGUUCACGUCGAAGCCCCUGUCAGAUUCUGGUGAAUCUGCGAAUUCUGCUGUAUAACUC [C34A U78A], with 0.16; and UAACAGGGGGCCACAGCAGAAGCGUUCACGUCGGAGCCCCUGUCAGAUUCUGGUGAAUAUGCGAAUUCUGCUGUAUAUCUC [C34G C59A], with 0.18.
The value for UAACAGGGGGCCACAGCAGAAGCGUUCACGUCGGAGCCCCUGUCAGAUUCUGGUGAAUGUGCGAAUUCUGCUGUAUAUCUC [C34G C59G] was 0.14; that for UAACAGGGGGCCACAGCAGAAGCGUUCACGUCGAAGCCCCUGUCAGAUUCUGGUGAAUCUGCGAAUUCUGCUGGAUAUCUC [C34A U74G] was 0.29.
As for UAACAGGGGGCCACAGCAGAAGCGUUCACGUCGAAGCCCCUGUCAGAUUCUGGAGAAUCUGCGAAUUCUGCUGUAUAUCUC [C34A U54A], the self-cleavage came to 0.17.
As to UAACAGGGGGCCACAGCAGAAGCGUUCACGUCGGAGCCCCUGUCAGAUUCUGGUGAAUCUGCGAAUUAUGCUGUAUAUCUC [C34G C68A], the self-cleavage is 0.1.
The value for UAACAGGGGGCCACAGCAGAAGCGUUCACGUCGGAGCCCCUGUCAGAUUCUGGUGAAUCUGCGAAUUUUGCUGUAUAUCUC [C34G C68U] was 0.15; that for UAACAGGGGGCCACAGCAGAAGCGUUCACGUCGAAGCCCCUGUCAGAUUCUGGUGAAUCCGCGAAUUCUGCUGUAUAUCUC [C34A U60C] was 0.14.
Consider UAACAGGGGGCCACAGCAGAAGCGUUCACGUCGGAGCCCCUAUCAGAUUCUGGUGAAUCUGCGAAUUCUGCUGUAUAUCUC [C34G G42A], for which the self-cleavage came to 0.62.
As to UAACAGGGGGCCACAGCAGAAGCGUUCACGUCGAAGCCCCUGUCAUAUUCUGGUGAAUCUGCGAAUUCUGCUGUAUAUCUC [C34A G46U], the self-cleavage is 0.15.
Then UAACAGGGGGCCACAGCAGAAGCGUUCACGUCGAAGCCCCUGUCAGAUUCUGGUGAAUCUGCGAACUCUGCUGUAUAUCUC [C34A U66C], with 0.46; and UAACAGGGGGCCACAGCAGAAGCGUUCACGUCGGAGCCCCUGUCCGAUUCUGGUGAAUCUGCGAAUUCUGCUGUAUAUCUC [C34G A45C], with 0.19; and UAACAGGGGGCCACAGCAGAAGCGUUCACGUCGGAGCCCCUGUCAGAUUCUGGUGAAUCUGCGAAUUCUGCUGUAUAUCUC [C34G], with 0.33.
Consider UAACAGGGGGCCACAGCAGAAGCGUUCACGUCGGAGCCCCUGUCAGAUUCUGGUGAAUCUGCGAAUUCUGUUGUAUAUCUC [C34G C71U], for which the self-cleavage turned out to be 0.52.
